In patent US20160333063:

Target: endogenous tau of wild-type mouse primary cortical neurons, P10637
Sequence (P10637 other isoform, or with tags, fused parts or gaps): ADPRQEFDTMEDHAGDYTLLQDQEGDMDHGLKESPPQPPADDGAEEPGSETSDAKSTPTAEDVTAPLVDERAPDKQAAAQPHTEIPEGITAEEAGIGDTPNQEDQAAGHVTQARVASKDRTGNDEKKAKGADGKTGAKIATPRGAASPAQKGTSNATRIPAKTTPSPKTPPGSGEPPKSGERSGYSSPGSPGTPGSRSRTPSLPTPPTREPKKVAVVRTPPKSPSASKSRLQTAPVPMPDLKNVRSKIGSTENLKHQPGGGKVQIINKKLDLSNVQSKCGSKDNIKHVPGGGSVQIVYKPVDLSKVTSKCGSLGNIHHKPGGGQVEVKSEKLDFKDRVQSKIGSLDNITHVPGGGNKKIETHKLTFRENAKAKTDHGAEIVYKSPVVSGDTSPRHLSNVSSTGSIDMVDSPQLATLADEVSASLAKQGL

B1: caspase 3 (activated, cleaved caspase 3) of mouse primary cortical neurons (protein)
chain: SGIYLDSSYKMDYPEMGICIIINNKNFHKSTGMSSRSGTDVDAANLRETFMGLKYQVRNKNDLTREDILELMDSVSKEDHSKRSSFVCVILSHGDEGVIYGTNGPVELKKLTSFFRGDYCRSLTGKPKLFIIQACRGTELDCGIETDSGTDEEMACQKIPVEADFLYAYSTAPGYYSWRNSKDGSWFIQSLCSMLKLYAHKLEFMHILTRVNRKVATEFESFSLDSTFHAKKQIPCIVSMLTKELYFYH
  tau cleaved at Asp421 (TauC3 western blot, TauC3 to total tau): did result in increased cleavage of tau as measured by TauC3 western blot
